Assay results taken from US20110190483, “Stimulus-Responsive Apta Chelamers” (The Administrators of the Tulane Educational Fund, published 2011).

What was measured:
Conditions in all cases: tags: Sigma Aldrich, from bovine pancreas; label: fluorescein on 5'-terminal dT; intramolecular antiparallel G4
trypsin [1] = molecular target: T1, trypsin (Bos taurus, UniProt P00760 P00760:24-246); assay: FP; preformed quadruplex, 25 mM KCl (20 mM elsewhere), 200 mM NaCl, 25 mM Hepes pH 7.4, 25 C; binding through small-molecule arms
T1 sequence (P00760 24-246, one chain of several): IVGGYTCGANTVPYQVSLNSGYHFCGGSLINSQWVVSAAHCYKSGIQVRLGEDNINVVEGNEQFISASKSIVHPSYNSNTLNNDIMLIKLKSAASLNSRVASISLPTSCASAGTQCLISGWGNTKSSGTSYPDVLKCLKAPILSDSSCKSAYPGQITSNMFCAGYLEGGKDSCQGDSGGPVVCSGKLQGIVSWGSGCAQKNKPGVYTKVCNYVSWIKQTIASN
Protocol: (§1) The preformed quadruplexes were then incubated with increasing concentrations of trypsin at 25° C. (25 mM KCl, 200 mM NaCl, 25 mM Hepes, pH 7.4) for 30 min. Preliminary fluorescence anisotropy studies were conducted to ascertain that equilibrium was reached after 30 min and that there was no significant quenching of the fluorescein emission. The anisotropy associated with the fluorescein emission was followed at 525 nm (excitation at 495 nm). The resultant binding isotherms (FIG. 14) were fitted using non-linear regression to a 1:1 binding stoichiometry. […] This dissociation constant is attributed to non-specific interactions between bovine trypsin and ODN 4, since trypsin (pI=10.5) is positively charged at pH=7.4 and thus can potentially associate with the negatively charged DNA backbone. Support for such non-specific interactions comes from incubation of trypsin with ODN 4 where the concentration of salts were decreased to only 5 mM KCl, 25 mM Hepes, pH 7.4 (see, e.g., FIG. 23).
(§2) Immediately prior to each fluorescence polarization experiment, fresh stock solutions of trypsin were made in Hepes buffer (20 mM KCl, 200 mM NaCl, 25 mM Hepes, pH 7.4). Concentration of the trypsin in the stock solutions were determined using ultra-violet absorbance at 280 nm (ε=37669 M⁻¹cm⁻¹).

trypsin [2] = molecular target: T1, trypsin; assay: FP; low salt: 5 mM KCl, 25 mM Hepes pH 7.4; +/-0.3e-6
Protocol: The results of FIG. 23 show fluorescence anisotropy titrations of AC 1 and negative control ODN 4 (2 nM), first exposed to quadruplex forming conditions followed by incubation with increasing concentrations of trypsin. These experiments were conducted under low-salt conditions (5 mM KCl, 25 mM Hepes, pH 7.4. The raw data is depicted by circles for AC 1 and diamonds (♦) for ODN 4. The lines represent non-linear fits to equation 2 (R²=0.99 for AC 1 and 0.98 for ODN 4).
These findings are consistent with the fact that bovine trypsin is positively charged at pH=7.4 (pI of bovine trypsin is=10.5) and thus can potentially associate with the negatively charged ODN backbone, through non-specific interactions, under low-salt conditions.

trypsin [3] = molecular target: T1, trypsin; assay: FP; 25 mM KCl, 200 mM NaCl, 25 mM Hepes pH 7.4, 25 C; benzamidine arm only
Protocol: as §1, §2

trypsin [4] = molecular target: T1, trypsin; assay: FP; 25 mM KCl, 200 mM NaCl, 25 mM Hepes pH 7.4, 25 C; iodophenylthiourea arm only
Protocol: as §1, §2

Q: What does the source list for TTGGTTGGTGTGGTTGGT (structured_DNA, 5'-benzamidine arm via C10 spacer, 3'-iodophenylthiourea arm via C6 spacer) [AC 1 (ODN 1, Formula 3)]?
A: Kd (trypsin [1]): 0.81 µM; Kd (trypsin [2]): 2.8 µM

Q: TTGGTTGGTGTGGTTGGT (structured_DNA, 5'-benzamidine arm via C10 spacer, no 3' arm) [ODN 2 (Formula 4)] was tested. Which Kd (trypsin [3]) did it give?
A: 29 µM

Q: How did the Kd (trypsin [4]) turn out when TTGGTTGGTGTGGTTGGT (structured_DNA, 3'-iodophenylthiourea arm via C6 spacer, no 5' arm) [ODN 3 (Formula 5)] was run?
A: 90 µM
